Assay results published in the supplement of paper PMC9732359.
± gives the uncertainty stated by the source.

Assay: protein stability index of a GFP-peptide fusion (yeast GPS) (PSI 1-4); higher = more stable; sorted into four equal gates, so the index is relative within each strain
In short: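 Peptides tiling yeast proteins in 17-residue segments were fused downstream of GFP, with Cherry expressed from the same plasmid. As a pooled library in yeast, mid-log cultures grown in leucine-free medium were sorted into four equal gates by GFP/Cherry fluorescence ratio. Gate plasmids were PCR-amplified and Illumina-sequenced, and barcodes linked reads to strains. Each peptide received a protein stability index equal to the sum of each gate's read frequency times its gate number.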

| Sequence | protein stability index (doa10∆) | protein stability index (pdr5∆) | protein stability index (san1∆) | protein stability index (ubr1∆) |
| --- | --- | --- | --- | --- |
| TIEKDKMKIQETISKLN [SMC2] | 1.71 ± 0.058 | 1.69 ± 0.044 | 1.94 ± 0.12 | 1.53 ± 0.038 |
| TYGVPGSENKRGSLDSE [NUT1] | 3.31 ± 0.095 | 3.25 ± 0.11 | 3.23 ± 0.15 | 2.99 ± 0.074 |
| TFIDKERHQKQLNEKLV [YCS4] | 2.62 ± 0.13 | 2.6 ± 0.16 | 2.81 ± 0.078 | 2.65 ± 0.093 |
| IADELMKLDDSSKTRNV [ITC1] | 2.61 ± 0.072 | 2.09 ± 0.12 | 2.69 ± 0.072 | 2.78 ± 0.08 |
| EAEVTAEVNGGDDEATE [BRR2] |  | 3.24 ± 0.12 |  | 2.72 ± 0.21 |
| CITKQDGFKIYDNEKTA [PUP2] | 2.85 ± 0.1 | 3.06 ± 0.063 | 3.1 ± 0.05 | 2.82 ± 0.095 |
| GTKSNEKKDSGSSKPAF [YJL041W/NSP1] | 3.21 ± 0.063 | 3.45 ± 0.072 | 3.42 ± 0.046 | 3.25 ± 0.069 |
| YMHDTELNYFVGCKNLE [GRR1] | 2.92 ± 0.085 | 2.78 ± 0.081 | 3.08 ± 0.079 | 3.21 ± 0.046 |
| LKTLVQGPRSYFLDVKC [RPS27A] | 3.08 ± 0.076 | 3.21 ± 0.13 | 2.72 ± 0.12 | 2.99 ± 0.075 |
| LYQDMAARHRARFRSIH [RPL20A] | 2.81 ± 0.071 | 2.71 ± 0.048 | 2.96 ± 0.051 | 2.95 ± 0.07 |
| DDHSQVINPQQLLKGLS [DSN1] | 3.17 ± 0.1 | 2.98 ± 0.084 | 3.03 ± 0.057 | 3.01 ± 0.068 |
| AETLAEELINAAKGSST [RPS5] | 2.15 ± 0.083 | 2.51 ± 0.095 | 2.32 ± 0.1 | 2.09 ± 0.088 |
| ENALIELKNELAKTKEN [YIL149C/MLP2] | 2.82 ± 0.087 | 2.97 ± 0.07 | 2.98 ± 0.068 | 2.93 ± 0.08 |
| YKLFIWLVVPTIYNLQH [YML031W/NDC1] | 1.36 ± 0.033 | 1.51 ± 0.032 | 1.36 ± 0.059 | 1.26 ± 0.029 |
| QIPVYDTFDGSDLRVLS [FAS1] | 2.7 ± 0.081 | 2.92 ± 0.059 | 2.53 ± 0.069 | 2.69 ± 0.058 |
| ALGEFADWDPESMAYTA [YML031W/NDC1] | 3.52 ± 0.14 | 3.54 ± 0.089 | 3.36 ± 0.083 | 3.26 ± 0.064 |
| NGGNNTQQPGTNSHYNN [SNF2] | 3.05 ± 0.058 | 3.16 ± 0.063 | 3.04 ± 0.054 | 3.05 ± 0.047 |
| VDIEYTRGRNIIMHKDV [RET1] | 2.44 ± 0.11 | 2.55 ± 0.13 | 2.92 ± 0.064 | 2.84 ± 0.1 |
| LDEVDAALDITNVQRIA [SMC1] | 3.16 ± 0.096 | 3.06 ± 0.098 | 3.14 ± 0.1 | 3.16 ± 0.087 |
| LINGHRAPQQSVLQLFQ [SMC2] | 3 ± 0.095 | 2.48 ± 0.069 | 2.5 ± 0.063 | 2.42 ± 0.051 |
| IPVIALTDLDSPSEFVD [RPS0A] | 2.68 ± 0.095 | 2.69 ± 0.091 | 2.74 ± 0.096 | 2.42 ± 0.06 |
| MESIGSDILTAEKMRGN [RRP4] | 3.1 ± 0.13 | 3.43 ± 0.12 | 3.14 ± 0.093 | 3.34 ± 0.092 |
| TPLRDEVTDKNYYYLFD [PRP8] | 2.98 ± 0.068 | 2.55 ± 0.049 | 3.03 ± 0.048 | 3.11 ± 0.059 |
| KRKVLELKKKRKIKRLE [SRP72] | 3.24 ± 0.077 | 3.2 ± 0.095 | 3.38 ± 0.1 | 3.29 ± 0.058 |
| QGGFYKQQDAEELFTQL [UBP6] | 3.38 ± 0.078 | 3.44 ± 0.12 | 3.07 ± 0.097 | 3.21 ± 0.075 |
| SIVTVVSSAKFSGKYLK [RPL22B] | 2.8 ± 0.1 | 2.86 ± 0.11 | 2.73 ± 0.085 | 2.73 ± 0.093 |

| Sequence | protein stability index (doa10∆) | protein stability index (pdr5∆) | protein stability index (san1∆) | protein stability index (ubr1∆) |
| --- | --- | --- | --- | --- |
| NYEIVFDTVSNKLFTEP [YMR129W/POM152] | 2.97 ± 0.055 | 3.02 ± 0.06 | 2.88 ± 0.055 | 3.03 ± 0.032 |
| DRVVSSDSLDIAQGIDL [SRP72] | 2.85 ± 0.069 | 2.6 ± 0.062 | 2.27 ± 0.079 | 3 ± 0.079 |
| EVLEKDAAIVKKYKNKT [YGR119C/NUP57] | 3.15 ± 0.11 | 3.24 ± 0.087 | 3.16 ± 0.071 | 3.1 ± 0.096 |
| KKINAKEKLIGWYHSGP [RPN8] | 2.91 ± 0.085 | 3.13 ± 0.096 | 3.33 ± 0.052 | 3.13 ± 0.06 |
| KQRLDLARQVKLLLLNT [YIL149C/MLP2] | 2.56 ± 0.059 | 2.15 ± 0.058 | 1.98 ± 0.092 | 1.88 ± 0.034 |
| PSQTLFSISYKPPTQKT [SRP21] | 2.23 ± 0.036 | 2.2 ± 0.039 | 1.97 ± 0.056 | 2.1 ± 0.032 |
| SSLVRRNSVKLLSKLLL [YCS4] | 1.68 ± 0.047 | 1.61 ± 0.04 | 1.64 ± 0.085 | 1.39 ± 0.027 |
| GKHLSYQRSKRVNNPNV [RPL33A] | 2.32 ± 0.047 | 1.92 ± 0.038 | 2.01 ± 0.069 | 2.78 ± 0.041 |
| DEDESQNIAQSSNQSAP [HRT1] | 2.99 ± 0.07 | 3.15 ± 0.074 | 3.14 ± 0.051 | 3.19 ± 0.043 |
| VHSSSPSTSSNMDVGNP [GAL11] | 2.89 ± 0.071 | 2.75 ± 0.066 | 2.69 ± 0.075 | 3.14 ± 0.054 |
| HIQGFPTLGERLDNLQD [DSN1] | 3.34 ± 0.11 | 3.39 ± 0.11 | 3.16 ± 0.046 | 3.05 ± 0.073 |
| KGEEAKLDSKKTVPFQV [SSN3] | 3.27 ± 0.087 | 3.37 ± 0.055 | 3.2 ± 0.097 | 3.23 ± 0.066 |
| RAGGAAASLIMPFLDNQ [PRE7] |  |  |  | 1.11 ± 0.11 |
| TPSTEESRAQNVFGQDN [SWI3] | 2.58 ± 0.092 | 2.77 ± 0.093 | 3.35 ± 0.054 | 2.55 ± 0.048 |
| FEDATREQHIDTICQSI [SNF5] | 2.88 ± 0.1 | 3.21 ± 0.15 | 3.26 ± 0.066 | 3.19 ± 0.08 |
| TASVEKAEFSKEMTLQK [YIL149C/MLP2] | 3.25 ± 0.15 | 3.44 ± 0.14 | 3.3 ± 0.14 | 3.22 ± 0.13 |
| YLDQHKRTRLESLKNLN [SMC3] | 2.11 ± 0.097 | 2.23 ± 0.083 | 1.7 ± 0.098 | 2.58 ± 0.21 |
| NGNWEVGVHIADVTHFV [DIS3] | 2.55 ± 0.052 | 2.09 ± 0.061 | 2.9 ± 0.047 | 2.62 ± 0.048 |
| MGRMHSAGKGISSSAIP [RPS13] | 2.74 ± 0.043 | 2.61 ± 0.068 | 3.11 ± 0.048 | 2.88 ± 0.041 |
| STGLKNASDALKGRVVE [RPS1B] | 3.21 ± 0.15 | 3.04 ± 0.099 | 2.91 ± 0.12 | 2.67 ± 0.07 |
| SLFSKIKTFFTQKDSAR [YAR002W/NUP60] | 2.21 ± 0.091 | 2.84 ± 0.083 | 2.42 ± 0.09 | 2.68 ± 0.087 |
| TTTVLKRYANHTQDIIG [RET1] | 2.04 ± 0.083 | 2.75 ± 0.093 | 3.02 ± 0.051 | 2.9 ± 0.055 |
| FYMKKDAVEGVSECIIL [RPO31] |  | 3.07 ± 0.29 | 2.86 ± 0.14 |  |
| DPQQVFDERIKFANQLH [RPN3] | 1.68 ± 0.09 | 1.97 ± 0.12 | 1.41 ± 0.14 | 1.33 ± 0.075 |
| IEQFAMRRNSKILNIIK [POP5] | 3.08 ± 0.084 | 2.88 ± 0.077 | 2.86 ± 0.076 | 3.23 ± 0.07 |
| GRVYRPLFIVEDDESLG [RPB2] | 1.71 ± 0.063 | 1.8 ± 0.087 | 1.59 ± 0.1 | 1.69 ± 0.034 |
